# Assay results published in US20260041732A1, “USE OF APELIN FOR THE TREATMENT OF LYMPHEDEMA” (INSTITUT NATIONAL DE LA SANTE ET DE LA RECHERCHE MEDICALE, priority 2022, published 2026).
# B1: APELIN: bioactive peptide apelin, endogenous ligand of APJ; applied to HDLEC as conditioned media from LV-Apelin transduced NIH3T3 or by transduction (protein, listed as Homo sapiens)
# chain: MNLRLCVQALLLLWLSLTAVCGGSLMPLPDGNGLEDGNVRHLVQPRGSRNGPGPWQGGRRKFRRQRPRLSHKGPMPF
# Legend:
# [1] = test system: Human dermal lymphatic endothelial cells (HDLEC); assay: Cell migration, cell junction and cytoskeleton remodeling; assay type: cell-based
# [2] = test system: Human dermal lymphatic endothelial cells (HDLEC); assay: RT-qPCR validation of gene induction; assay type: cell-based; conditions: RT-qPCR on HDLEC
# Description: Total RNA was prepared using RNeasy kit (Qiagen 74106) according to the supplier's instruction. 1 μg of RNA was retro-transcribed using high-Capacity cDNA Reverse Transcription Kit (Thermo Fisher Scientific, 4368813) containing Multi-Scribe Reverse Transcriptase according to the supplier's instruction. Quantitative real-time PCR was performed using OneGreen FAST qPCR premix (Ozyme, OZYA008) on a StepOne Real-time PCR System (Thermofisher Scientific). All samples were analysed in duplicates. Data was normalized relative to HPRT mRNA levels.
# [3] = test system: Human dermal lymphatic endothelial cells (HDLEC); assay: Bulk RNA-sequencing, differential gene expression and GO analysis; assay type: cell-based
# Description: Human dermal lymphatic endothelial cells (HDLEC) (single donor, juvenile foreskin, Promocell, C-12216, >95% of the cells are CD31 positive and podoplanin positive) were cultured in Endothelial Cell Media MV2 (EGM-MV2, Promocell, C-22121). NIH3T3 were cultured in Dulbecco's modified Eagle's medium (DMEM, Sigma, D6429) supplemented with 10% fetal bovine serum (FBS, Gibco, 10270-06) and 1% penicillin-streptomycin. Endothelial cells were used at passage 3-6 and human fibroblasts were used at passage 4-7. Cells were cultured at 37° C. in a 5% CO2 incubator. Culture medium was changed 3 times a week, and the cells were passaged ⅓. For collecting conditioned media, NIH3T3 were grown in 10 cm dishes, after reaching confluence, medium was removed and the cells were washed once with PBS. NIH3T3 were cultured overnight in 5 mL reduced serum medium optiMEM (Gibco), the medium was then collected and used for experiments. HDLEC were treated with 50% conditioned media/50% MV2-05% FBS. Total RNA from HDLEC transduced or not with Apelin Lentivector were prepared using the RNeasy mini kit (Qiagen 74106). Total RNA were then subjected to ribosomal-RNA depleted RNA sequencing (RNA-Seq) protocol performed by Genewiz company using Illumina HiSeq, PE 2×150 configuration. Sequence reads were trimmed to remove possible adapter sequences and nucleotides with poor quality using Trimmomatic v.0.36. The trimmed reads were mapped to the Homo sapiens GRCh38 reference genome available on ENSEMBL using the STAR aligner v.2.5.2b. The STAR aligner is a splice aligner that detects splice junctions and incorporates them to help align the entire read sequences. BAM files were generated as a result of this step. Unique gene hit counts were calculated by using feature Counts from the Subread package v.1.5.2. The hit counts were summarized and reported using the gene_id feature in annotation file. Only unique reads that fell within exon regions were counted. Distribution of read counts in libraries were examined before and after normalization. The original read counts were normalized to adjust for various factors such as variations of sequencing yield between samples. These normalized read counts were used to accurately determine differentially expressed genes. Data quality assessments were performed to detect any samples that are not representative of their group, and thus, may affect the quality of the analysis. The overall similarity among samples were assessed by the Euclidean distance between samples. This method was used to examine which samples are similar/different to each other and if they fit to the expectation from the experiment design. The shorter the distance, the more closely related the samples are. Samples were then clustered by using the distance. A principal component analysis was also performed to reveal the similarity between samples based on the distance matrix. After extraction of gene hit counts, the gene hit counts table was used for downstream differential expression analysis. Using DESeq2, a comparison of gene expression between Apelin transduced LEC against non-transduced LEC was performed. The Wald test was used to generate p-values and log2 fold changes. […] The global transcriptional change across the two groups compared was visualized by a volcano plot. Each data point in the volcano plot represents a gene. The log2 fold change of each gene is represented on the x-axis and the log10 of its adjusted p-value is on the y-axis.
# [4] = test system: Human dermal lymphatic endothelial cells (HDLEC); assay: Immunoblotting of AKT, ERK and eNOS phosphorylation; assay type: cell-based; conditions: conditioned media
# Description: Human dermal lymphatic endothelial cells (HDLEC) (single donor, juvenile foreskin, Promocell, C-12216, >95% of the cells are CD31 positive and podoplanin positive) were cultured in Endothelial Cell Media MV2 (EGM-MV2, Promocell, C-22121). NIH3T3 were cultured in Dulbecco's modified Eagle's medium (DMEM, Sigma, D6429) supplemented with 10% fetal bovine serum (FBS, Gibco, 10270-06) and 1% penicillin-streptomycin. Endothelial cells were used at passage 3-6 and human fibroblasts were used at passage 4-7. Cells were cultured at 37° C. in a 5% CO2 incubator. Culture medium was changed 3 times a week, and the cells were passaged ⅓. For collecting conditioned media, NIH3T3 were grown in 10 cm dishes, after reaching confluence, medium was removed and the cells were washed once with PBS. NIH3T3 were cultured overnight in 5 mL reduced serum medium optiMEM (Gibco), the medium was then collected and used for experiments. HDLEC were treated with 50% conditioned media/50% MV2-05% FBS.
# Cells were scrapped and lysed in RIPA buffer (RIPA 2X, Biotech RB4476) supplemented with phosphatase inhibitor (PhosSTOP Easypack, Roche0490687001) and protease inhibitors (protease inhibitor cocktail, Sigma Aldrich). Lysates were centrifuged at 13500 g for 10 minutes at 4° C. Supernatants were then collected and mix with Laemmli buffer containing dithiothreitol (DTT 1 mM). Protein were resolved on 4-15% SDS-PAGE gels and transferred to nitrocellulose membrane (Trans-Blot Turbo RTA transfer kit, #1704271, Biorad). Membranes were blocked for 1h at room temperature in 5% BSA-TBS-T (TBS-0.1% Tween 20) and probed with primary antibody overnight at 4° C. Antibody used are the following: Phospho AKT: AKT-p ser473 (CS #4060S), AKT: santa cruz H136 (S8312), Phospho ERK: ERK1/2-p (MAPKp42/44) (Thr202/Thr204) (cell signalling #9106), ERK ERK1/2-(MAPKp42/44) (Thr202/Thr204) (cell signalling #9102), Phospho eNOS (cell signalling #9571S), eNOS (cell signalling #5880S), E2F8 (Abcam, AB109596), VEGFR3 (RID system AF349), Phospho-VEGFR3 (Affinity AF3676), CCBE1 (Sigma SAB1402017).
# After three washes in TBS-T, membranes were probed with HRP-conjugated secondary antibodies at 1/10000 dilution. Signals were visualized with chemiluminescence detection reagent (Sigma) on a Chemidoc (Biorad) digital acquisition system.
# [5] = cited from earlier work
molecule,measurement,setting,value
B1,endothelial monolayer integrity,[1],no effect
same,cell junction or cytoskeleton remodeling,[1]; HDLEC,no effect
same,cell migration,[1]; HDLEC,activation of cell migration
same,CCBE1 induction,[2],strongly confirmed
same,GO analysis of down regulated genes,[3],no biological process was significantly affected
same,"GO analysis for biological process, upregulated genes",[3]; FDR<0.05,enriched (FDR<0.05) for terms related to extracellular matrix (ECM) remodelling and signalisation
same,number of genes up regulated by both apelin and VEGF-C,"[3]; HDLEC, conditioned media",43 genes
same,number of genes up regulated by both apelin and apelin+VEGF-C,"[3]; HDLEC, conditioned media",31 genes
same,"number of genes up regulated by both apelin, VEGF-C and apelin+VEGF-C","[3]; HDLEC, conditioned media",19 genes
same,expression of E2F8,[3]; LEC,stimulated
same,"expression of genes related to VEGFC maturation (ADAMTS2, CCBE1)",[3]; compared to WT,improved
same,number of genes deregulated,"[3]; conditioned media vs control NIH3T3 media, p.adj<0.05 and Log2 fold change<-0.5 or >0.5",217 genes
same,number of genes down regulated,"[3]; p.adj<0.05, Log2 fold change <-0.5",123 genes
same,number of genes up regulated,"[3]; p.adj<0.05, Log2 fold change >0.5",94 genes
same,eNOS phosphorylation,[4]; HDLEC,observed
same,AKT activation (phosphorylation),[4]; 24 h time course,stimulated Akt phosphorylation after 1 hour
same,ERK activation,[4]; 24 h time course,without major effect
same,AKT activation (phosphorylation),"[4]; 24 h time course, listed as apelin",lesser extent than the phosphorylation induced by VEGF-C
same,plasma apelin half-life,[5],less than five minutes
